Results as given in patent publication US20110200585A1.
“And” between values parts separate entries of the source, which are not always exact repeats. Identical values can stand only once. Values belong to the binder of their own block, whether it stands above or below them.

Assays:
human CD127 ECD (human) [1] = biological target: human CD127 ECD (human) (UniProt P16871); test: SPR, BIAcore 3000; antibody captured on anti-human IgG (Fc), CD127 ECD 16-512 nM as analyte, 1:1 Langmuir fit
human CD127 ECD (human) [2] = biological target: human CD127 ECD (human) (UniProt P16871); test: SPR, BIAcore 3000; antibody captured on anti-human IgG (Fc), CD127 ECD as analyte; the column head says M, but kd/ka gives 1.9e-8 M, so nM is meant
human CD127 ECD (human) [3] = biological target: human CD127 ECD (human) (UniProt P16871); test: SPR, BIAcore 3000; antibody captured on anti-human IgG (Fc), CD127 ECD as analyte; the column head says M, but kd/ka gives 1.7e-8 M, so nM is meant
human CD127 ECD (human) [4] = biological target: human CD127 ECD (human) (UniProt P16871); test: SPR, BIAcore 3000; antibody captured on anti-human IgG (Fc), CD127 ECD as analyte; the column head says M, but kd/ka gives 1.5e-8 M, so nM is meant
human CD127 ECD (human) [5] = biological target: human CD127 ECD (human) (UniProt P16871); test: SPR, BIAcore 3000; antibody captured on anti-human IgG (Fc), CD127 ECD as analyte; the column head says M, but kd/ka gives 2.8e-8 M, so nM is meant
[6] = biological target: IL7R (analyte of the CDRH3 variant assays) (Homo sapiens (Human)) (UniProt P16871); test: SPR, BIAcore 3000; antibody captured on anti-human IgG (CM5), IL7R 1-64 nM as analyte, 1:1 fit, 25 C
[7] = biological target: IL7R (analyte of the CDRH3 variant assays) (Homo sapiens (Human)) (UniProt P16871); test: SPR, BIAcore T100; antibody captured on anti-human IgG (CM3), IL-7R 1-256 nM as analyte, 1:1 fit, 25 C
[8] = biological target: IL7R (analyte of the CDRH3 variant assays) (Homo sapiens (Human)) (UniProt P16871); test: SPR competition, BIAcore; IL7R 64 nM pre-incubated 3 h with antibody 1-256 nM, run over immobilised IL7 (competitor); run 1
[9] = biological target: IL7R (analyte of the CDRH3 variant assays) (Homo sapiens (Human)) (UniProt P16871); test: SPR competition, BIAcore; IL7R 64 nM pre-incubated 3 h with antibody 0.25-256 nM, run over immobilised IL7 (competitor); run 2

B1: 6A3 H4-61_6L27 (antibody, V domains shown)
VH: QVQLQESGPGLVKPSETLSLTCTVSGYSVSTDYAWNWIRQPPGKGLEWIGYIFYSGSTTYTPSLKSRVTISRDTSKNQFSLKLSSVTAADTAVYYCARGGYDVNYFDYWGQGTTVTVSS
VL: DIQMLQSPSSLSASVGDRVTITCLASQTIGYWLAWYQQKPGKAPKLLIYAATRLADGVPSRFSGSGSGTMFTLTISSLQPEDFATYYCQQFFSYPWTFGGGTKVEIK
koff (human CD127 ECD (human) [1]): 0.000299 s⁻¹
kon (human CD127 ECD (human) [1]): 16000 M⁻¹ s⁻¹
Kd (human CD127 ECD (human) [2]): 19 nM

B4: 6A3 H4-61_7L27 (antibody, V domains shown)
VH: QVQLQESGPGLVKPSETLSLTCTVSGYSVTTDYAWNWIRQPPGKGLEWIGYIFYSGSTTYTPSLKSRVTISRDTSKNQFSLKLSSVTAADTAVYYCARGGYDVNYFDYWGQGTTVTVSS
VL: DIQMLQSPSSLSASVGDRVTITCLASQTIGYWLAWYQQKPGKAPKLLIYAATRLADGVPSRFSGSGSGTMFTLTISSLQPEDFATYYCQQFFSYPWTFGGGTKVEIK
koff (human CD127 ECD (human) [1]): 0.00104 s⁻¹
kon (human CD127 ECD (human) [1]): 37700 M⁻¹ s⁻¹
Kd (human CD127 ECD (human) [5]): 28 nM

B5: 1A11 H3L6 (antibody, V domains shown)
VH: QVQLVQSGAEVKKPGASVKVSCKASGYTFTGYTMNWVRQAPGQGLEWMGLINPYNGVTSYNQKFKGRVTLTRDTSISTAYMELSRLRSDDTAVYYCARGDGNYWYFDVWGQGTTVTVSS
VL: EIVLTQSPATLSLSPGERATLSCSASSSVTYMHWYQQKPGQAPRPWIYEISKLASGVPARFSGSGSGTDYTLTISSLEPEDFAVYYCQEWNYPYTFGGGTKVEIK
Kd (human CD127 ECD (human) [1]): 155 nM
koff (human CD127 ECD (human) [1]): 0.00282 s⁻¹
kon (human CD127 ECD (human) [1]): 18200 M⁻¹ s⁻¹

B6: 1A11 H3L5 (antibody, V domains shown)
VH: QVQLVQSGAEVKKPGASVKVSCKASGYTFTGYTMNWVRQAPGQGLEWMGLINPYNGVTSYNQKFKGRVTLTRDTSISTAYMELSRLRSDDTAVYYCARGDGNYWYFDVWGQGTTVTVSS
VL: EIVLTQSPATLSLSPGERATLSCSASSSVTYMHWYQQKPGQAPRPWIYEISKLASGIPARFSGSGSGTDYTLTISSLEPEDFAVYYCQEWNYPYTFGGGTKVEIK
Kd (human CD127 ECD (human) [1]): 207 nM
koff (human CD127 ECD (human) [1]): 0.00607 s⁻¹
kon (human CD127 ECD (human) [1]): 29400 M⁻¹ s⁻¹

B9: 1A11 Chimera (antibody, human IgG1, V domains shown)
VH: EVQLQQSGPELLKPGASMKISCKASGYSFTGYTMNWVKQSHGKNLEWIGLINPYNGVTSYNQKFKGKATLTVAKSSSTAYMELLSLTSEDSAVYYCARGDGNYWYFDVWGAGTTVTVSS
VL: EIVLTQSPAITAASLGQKVTITCSASSSVTYMHWYQQKSGTSPKPWIYEISKLASGVPVRFSGSGSGTSYSLTISSMEAEDAAIYYCQEWNYPYTFGGGTKLEIK
Kd (human CD127 ECD (human) [1]): 3.22 nM
koff (human CD127 ECD (human) [1]): 0.000298 s⁻¹
kon (human CD127 ECD (human) [1]): 92600 M⁻¹ s⁻¹

Now from value to binder:

koff (human CD127 ECD (human) [1]): 0.00122 s⁻¹
kon (human CD127 ECD (human) [1]): 69900 M⁻¹ s⁻¹
Kd (human CD127 ECD (human) [3]): 18 nM
B2: 6A3 H4-61_9L27 (antibody, V domains shown)
VH: QVQLQESGPGLVKPSETLSLTCTVSGYSVTTDYAWNWIRQPPGKGLEWMGYIFYSGSTTYTPSLKSRITISRDTSKNQFSLKLSSVTAADTAVYYCARGGYDVNYFDYWGQGTTVTVSS
VL: DIQMLQSPSSLSASVGDRVTITCLASQTIGYWLAWYQQKPGKAPKLLIYAATRLADGVPSRFSGSGSGTMFTLTISSLQPEDFATYYCQQFFSYPWTFGGGTKVEIK

koff (human CD127 ECD (human) [1]): 0.00037 s⁻¹
kon (human CD127 ECD (human) [1]): 24300 M⁻¹ s⁻¹
Kd (human CD127 ECD (human) [4]): 15 nM
B3: 6A3 H4-61_8L27 (antibody, V domains shown)
VH: QVQLQESGPGLVKPSETLSLTCTVSGYSVTTDYAWNWIRQPPGKGLEWIGYIFYSGSTTYTPSLKSRITISRDTSKNQFSLKLSSVTAADTAVYYCARGGYDVNYFDYWGQGTTVTVSS
VL: DIQMLQSPSSLSASVGDRVTITCLASQTIGYWLAWYQQKPGKAPKLLIYAATRLADGVPSRFSGSGSGTMFTLTISSLQPEDFATYYCQQFFSYPWTFGGGTKVEIK

Kd [6]: 0.582 nM
koff [6]: 0.000196 s⁻¹
kon [6]: 337000 M⁻¹ s⁻¹
Kd [7]: 0.034 nM
koff [7]: 3.06e-05 s⁻¹
kon [7]: 910000 M⁻¹ s⁻¹
IC50 [8]: 14.8 nM
IC50 [9]: 14.9 nM and 15.2 nM
B7: BPC4401 (antibody, V domains shown)
VH: QVQLVQSGAEVKKPGASVKVSCKASGYTFTGYTMNWVRQAPGQGLEWMGLINPYNGVTSYNQKFKGRVTLTRDTSISTAYMELSRLRSDDTAVYYCARGDGNYWYHDVWGQGTTVTVSS
VL: EIVLTQSPATLSLSPGERATLSCSASSSVTYMHWYQQKPGQAPRPLIYEISKLASGIPARFSGSGSGTDFTLTISSLEPEDFAVYYCQEWNYPYTFGGGTKVEIK

Kd [6]: 0.668 nM
koff [6]: 0.0002 s⁻¹
kon [6]: 300000 M⁻¹ s⁻¹
Kd [7]: 0.04 nM
koff [7]: 3.32e-05 s⁻¹
kon [7]: 826000 M⁻¹ s⁻¹
IC50 [8]: 15.2 nM
B8: BPC4402 (antibody, V domains shown)
VH: QVQLVQSGAEVKKPGASVKVSCKASGYTFTGYTMNWVRQAPGQGLEWMGLINPYNGVTSYNQKFKGRVTLTRDTSISTAYMELSRLRSDDTAVYYCARGDGNYWYIDVWGQGTTVTVSS
VL: EIVLTQSPATLSLSPGERATLSCSASSSVTYMHWYQQKPGQAPRPLIYEISKLASGIPARFSGSGSGTDFTLTISSLEPEDFAVYYCQEWNYPYTFGGGTKVEIK
